Biological target: ubiquitin (UniProt P0CG48 1-76)
Experiment: NMR titration

B1: RAD23A UBA1 domain (aa 160–205) (domain or fragment)
chain: not shown
B1: binds.
